Measured values: patent US20210147523A1 (TEIJIN PHARMA, published 2021)
Numbering of substitutions follows the chain as printed.

T1: human SPNS2 L196A mutant (human, UniProt Q8IVW8 1-549)
T1 sequence: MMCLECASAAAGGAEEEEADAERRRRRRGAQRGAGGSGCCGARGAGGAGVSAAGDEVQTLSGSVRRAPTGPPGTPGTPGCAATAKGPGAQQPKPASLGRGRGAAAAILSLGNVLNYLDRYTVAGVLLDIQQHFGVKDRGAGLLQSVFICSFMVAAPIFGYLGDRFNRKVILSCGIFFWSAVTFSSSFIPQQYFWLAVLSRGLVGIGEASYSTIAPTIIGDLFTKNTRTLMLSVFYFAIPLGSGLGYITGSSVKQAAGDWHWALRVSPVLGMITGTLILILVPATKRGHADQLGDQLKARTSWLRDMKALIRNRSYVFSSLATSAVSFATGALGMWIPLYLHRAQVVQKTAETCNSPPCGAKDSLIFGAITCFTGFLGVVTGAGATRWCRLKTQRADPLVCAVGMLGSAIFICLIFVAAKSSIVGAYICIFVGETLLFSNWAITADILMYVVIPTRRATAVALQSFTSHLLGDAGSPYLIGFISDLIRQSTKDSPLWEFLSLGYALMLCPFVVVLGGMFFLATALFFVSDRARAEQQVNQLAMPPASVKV

T2: human SPNS2 G134A mutant (human, UniProt Q8IVW8 1-549)
T2 sequence: T1 sequence with G134A, A196L

B1: 65-0810G (antibody, IgG2b, V domains shown)
VH: EVHLVESGGGLVQPGRSMKLSCTASGFTFNNYYMAWVRQAPTKGLEWVASISTGGGYTYYRDSVKGRFTISRDNTGNTLYLQMDSLRSEDTATYYCARCWELPYWGQGVMVTVSS
VL: QFVLTQPNSVSTNLGSTVKLSCRRSSGNIGNNYVNWYRQHEGRSPTTMIYRDDTRPDGVPNRFSGSIDRSSNSALLTINNVRPEDEAYYFCQSYSGSIYIFGGGTKLTVL
B2: 64-0807A (antibody, IgG2b, V domains shown)
VH: EVQVVESGGGLVQPGRSMKLSCAALGFTFRDYYMAWVRQTPTKGLEWVAAISTGGGNTYYRDSVKGRFTISRDNAKSTLYLQMDSLRSDDTATYYCARNPYGNYFDYWGQGVMVTVSS
VL: QFVLSQPNSVSTNLGSTVKLSCKRSTGNIGSNYVHWYQRHEGRSPTTLIYRDDKRPNGVPDRFSGSIDRSSNSALLTINNVQTEDEADYFCQSYSGGMYLFGGGTKLTVL

Columns and labels:
human SPNS2 L196A mutant = molecular target: T1, human SPNS2 L196A mutant; test: flow cytometry
human SPNS2 G134A mutant = molecular target: T2, human SPNS2 G134A mutant; test: flow cytometry

Binder | binding ratio vs native type (human SPNS2 L196A mutant) [ratio] | binding ratio vs native type (human SPNS2 G134A mutant) [ratio]
B1 | < 0.5 | –
B2 | – | < 0.5
